Laboratory results published in patent US20250313637A1 (DREN BIO MANAGEMENT, published 2025).

T1: human Dectin-1 expressed by HEK-Blue hDectin-1-a cells (human, UniProt Q9BXN2 1-247)
T1 sequence: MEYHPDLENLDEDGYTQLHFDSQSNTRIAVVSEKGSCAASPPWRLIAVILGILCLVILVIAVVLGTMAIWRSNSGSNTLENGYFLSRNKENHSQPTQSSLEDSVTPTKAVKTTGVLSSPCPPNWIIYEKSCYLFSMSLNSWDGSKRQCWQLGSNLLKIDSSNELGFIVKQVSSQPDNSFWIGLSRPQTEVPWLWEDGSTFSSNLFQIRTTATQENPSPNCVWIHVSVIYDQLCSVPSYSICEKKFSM

T2: CD20 expressed on Raji cells (UniProt P11836 1-297, limits assumed)
T2 construct: whole, on cells; also called CD20-expressing Raji cells; CD20-expressing B cell lymphoma Raji cell line
T2 sequence (looked up): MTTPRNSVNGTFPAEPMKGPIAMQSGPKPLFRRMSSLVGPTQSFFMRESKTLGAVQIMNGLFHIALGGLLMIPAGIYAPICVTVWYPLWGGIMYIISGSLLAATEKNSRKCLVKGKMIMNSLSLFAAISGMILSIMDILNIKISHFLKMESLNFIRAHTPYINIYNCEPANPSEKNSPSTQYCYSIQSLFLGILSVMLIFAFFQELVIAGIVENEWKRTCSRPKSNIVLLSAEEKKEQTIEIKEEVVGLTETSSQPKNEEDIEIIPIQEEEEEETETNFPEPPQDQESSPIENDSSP


How the values were obtained:
[1] = biological target: T1, human Dectin-1 expressed by HEK-Blue …; experiment: cell-based or functional assay
[2] = biological target: T2, CD20 expressed on Raji cells; experiment: flow cytometry on CD20-expressing Raji cells
Procedure: To evaluate the effect of the 2M24xCD20 bispecific antibody on cells, its binding affinity for cells expressing Dectin-1 or CD20 was measured. Two different formats were used to drive heavy:light chain pairing and bispecific antibody assembly: the DuetMab format with engineered disulfide bonds (see Mazor, Y. et al. (2015) MAbs 7:377-389) (“2M24xCD20 hG1 Duet”) and the M-Fab format described herein (see, e.g., FIG. 3) (“2M24xCD20 hG1M”), as compared to monospecific anti-CD20 with hG1 Fc. Binding of the bispecific 2M24xCD20 antibodies to Dectin-1-expressing HEK293 cells was assessed by flow cytometry (FIG. 7A). Both M-Fab and DuetMab formats were able to bind cells expressing Dectin-1 with similar affinities. Binding of the bispecific 2M24xCD20 antibodies to cells expressing CD20 was also assessed by flow cytometry, using the CD20-expressing B cell lymphoma Raji cell line (FIG. 7B). Both M-Fab and DuetMab were able to bind cells expressing CD20 with similar affinities, but with reduced affinity compared to the parental monospecific anti-CD20 antibody.

| Binder | SEAP reporter assay EC50 (OD630), HEK-Blue hDectin-1-a cells co-cultured with CD20-expressing Raji cells, Exp. 1 [1] [nM] | SEAP reporter assay EC50 (OD630), HEK-Blue hDectin-1-a cells co-cultured with CD20-expressing Raji cells, Exp. 2 [1] [nM] | SEAP reporter assay EC50, in presence of CHO cells (~2 million copies/cell) [1] [nM] | SEAP reporter assay EC50, in presence of H2170 cells expressing Trop2 (~136,000 copies/cell) [1] [nM] | SEAP reporter assay EC50, in presence of HeLa cells expressing Trop2 (~25,500 copies/cell) [1] [nM] | SEAP reporter assay, fold shift in EC50 against traditional bispecific, CHO cells [1] [fold] | SEAP reporter assay, fold shift in EC50 against traditional bispecific, H2170 cells [1] [fold] | SEAP reporter assay, fold shift in EC50 against traditional bispecific, HeLa cells [1] [fold] | binding result [2] |
| --- | --- | --- | --- | --- | --- | --- | --- | --- | --- |
| M-Fab 2M24xCD20 bispecific antibody (2M24xCD20 hG1M) (bispecific antibody, human IgG1, kappa) heavy 1: not shown light 1: DIQMTQSPSSVSASVGDRVTITCRASQGISSWLAWYQQKPGKAPKLLIFGASSLQSGVPSRFSGSGSGTDFTLTVSSLQPEDFATYYCQQAYSFPFTFGPGTKVDIERTVALHRPDVYLLPPAREQLNLRESATIWCLVTGFSPADVFVQWMQRGQPLSPEKYVTSAPMPEPQAPGRYFAHSILTVSEEEWNTGETYTCVVAHEALPNRVTERTVDKSTGEC heavy 2: QVQLQQPGAELVKPGASVKMSCKASGYTFTSYNMHWVKQTPGRGLEWIGAIYPGNGDTSYNQKFKGKATLTADKSSSTAYMQLSSLTSEDSAVYYCARSTYYGGDWYFNVWGAGTTVTVSAASTKGPSVFPLAPSSKSTSGGTAALGCLVKDYFPEPVTVSWNSGALTSGVHTFPAVLQSSGLYSLSSVVTVPSSSLGTQTYICNVNHKPSNTKVDKKVEPKSCDKTHTCPPCPAPELLGGPSVFLFPPKPKDTLMISRTPEVTCVVVDVSHEDPEVKFNWYVDGVEVHNAKTKPREEQYNSTYRVVSVLTVLHQDWLNGKEYKCKVSNKALPAPIEKTISKAKGQPREPQVYTLPPSREEMTKNQVSLSCAVKGFYPSDIAVEWESNGQPENNYKTTPPVLDSDGSFFLVSKLTVDKSRWQQGNVFSCSVMHEALHNRFTQKSLSLSPG light 2: QIVLSQSPAILSASPGEKVTMTCRASSSVSYIHWFQQKPGSSPKPWIYATSNLASGVPVRFSGSGSGTSYSLTISRVEAEDAATYYCQQWTSNPPTFGGGTKLEIKRTVAAPSVFIFPPSDEQLKSGTASVVCLLNNFYPREAKVQWKVDNALQSGNSQESVTEQDSKDSTYSLSSTLTLSKADYEKHKVYACEVTHQGLSSPVTKSFNRGEC | 3.65 | 3.53 |  |  |  |  |  |  |  |
| 2+1 M-Fab (2M24xTrop2 hIgG1) bispecific antibody (bispecific antibody) heavy 1: not shown light 1: not shown heavy 2: not shown light 2: DIVLTQSPGTLSLSPGERATLSCRASQSVSSSYLAWYQQKPGQAPRLLISGASSRATGIPDRFSGSGSGTDFTLTISRLEPEDFAVYYCQQYGSSHRTFGQGTKVEIKRTVALHRPDVYLLPPAREQLNLRESATIWCLVTGFSPADVFVQWMQRGQPLSPEKYVTSAPMPEPQAPGRYFAHSILTVSEEEWNTGETYTCVVAHEALPNRVTERTVDKSTGES |  |  | 0.13 | 0.17 | 0.37 | 9.8 | 47.6 | 4.7 |  |
| DuetMab 2M24xCD20 bispecific antibody (2M24xCD20 hG1 Duet) (bispecific antibody, V domains shown, Human IgG1 in the DuetMab format with engineered disulfide bonds (Mazor 2015)) VH 1: QVQLVQSGAEVKKPGASVKVSCKSSGYTFTDYYIHWVRQAPGQGLEWMGWINPNSGDTNYAQKFQGRITMTRDTSISTAYLELSRLRSDDTAVFYCARNSGSYSFGYWGQGTLVTVSS VL 1: DIQMTQSPSSVSASVGDRVTITCRASQGISSWLAWYQQKPGKAPKLLIFGASSLQSGVPSRFSGSGSGTDFTLTVSSLQPEDFATYYCQQAYSFPFTFGPGTKVDIE VH 2: QVQLQQPGAELVKPGASVKMSCKASGYTFTSYNMHWVKQTPGRGLEWIGAIYPGNGDTSYNQKFKGKATLTADKSSSTAYMQLSSLTSEDSAVYYCARSTYYGGDWYFNVWGAGTTVTVSA VL 2: QIVLSQSPAILSASPGEKVTMTCRASSSVSYIHWFQQKPGSSPKPWIYATSNLASGVPVRFSGSGSGTSYSLTISRVEAEDAATYYCQQWTSNPPTFGGGTKLEIK | 2.63 | 3.19 |  |  |  |  |  |  | binds |
